Results from patent publication US20080305187A1, “Use of Parathyroid Hormone for Treating Periodontal Disease and for Other Dental Applications” (priority 2005, published 2008).

B1: parathyroid hormone (peptide, UniProt P01270 32-115, looked up)
Parathyroid hormone: SVSEIQLMHNLGKHLNSMERVEWLRKKLQDVHNFVALGAPLAPRDAGSQRPRKKEDNVLVESHEKSLGEADKADVNVLTKAKSQ
modifications: Parathyroid hormone

Assays:
[1] = system: patient with adult periodontitis; assay: Treatment of patient with periodontal disease prior to dental implant therapy; type: in vivo, human; conditions: person, 20 μg once-daily subcutaneous for 3 months prior to implant surgery
Excerpt: A person presents with a history of adult periodontitis. The patient has experienced significant alveolar bone loss confirmed radiographically, and has a number of tooth sites with pocket probing depth measurements of about 7 mm. The patient has discussed with their dentist possible extraction of severely-affected teeth and their replacement with dental implants, but the prospects for success are diminished in view of the bone loss that has occurred. Standard periodontal care is provided, including scaling and root planning, and those teeth with poor prognosis are extracted. Prior to implant surgery, the patient is administered 20 μg of hPTH(1-34) once-daily by subcutaneous injection for 3 months prior to implant surgery.

[2] = system: systemic bone loss associated with osteoporosis; conditions: R. M. Neer et al., NEJM 2001; cited from earlier work

Molecule | complications post placement of the implants [1] | BMD [2] | risk of vertebral and non-vertebral bone fracture [2]
CC[C@H](C)[C@H](NC(=O)[C@H](CCC(=O)O)NC(=O)[C@H](CO)NC(=O)[C@@H](NC(=O)[C@@H](N)CO)C(C)C)C(=O)N[C@@H](CCC(N)=O)C(=O)N[C@@H](CC(C)C)C(=O)N[C@@H](CCSC)C(=O)N[C@@H](Cc1cnc[nH]1)C(=O)N[C@@H](CC(N)=O)C(=O)N[C@@H](CC(C)C)C(=O)NCC(=O)N[C@@H](CCCCN)C(=O)N[C@@H](Cc1cnc[nH]1)C(=O)N[C@@H](CC(C)C)C(=O)N[C@@H](CC(N)=O)C(=O)N[C@@H](CO)C(=O)N[C@@H](CCSC)C(=O)N[C@@H](CCC(=O)O)C(=O)N[C@@H](CCCN=C(N)N)C(=O)N[C@H](C(=O)N[C@@H](CCC(=O)O)C(=O)N[C@@H](Cc1c[nH]c2ccccc12)C(=O)N[C@@H](CC(C)C)C(=O)N[C@@H](CCCN=C(N)N)C(=O)N[C@@H](CCCCN)C(=O)N[C@@H](CCCCN)C(=O)N[C@@H](CC(C)C)C(=O)N[C@@H](CCC(N)=O)C(=O)N[C@@H](CC(=O)O)C(=O)N[C@H](C(=O)N[C@@H](Cc1cnc[nH]1)C(=O)N[C@@H](CC(N)=O)C(=O)N[C@@H](Cc1ccccc1)C(=O)O)C(C)C)C(C)C [hPTH(1-34), human PTH(1-34)] | No complications | – | –
B1 | – | increases BMD | reduces the risk of vertebral and non-vertebral bone fracture
